From PMC10397247 come the findings set out here.

Common to all, as to test: two-hybrid library CCmax;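 further: natural log of median RNA to DNA barcode read ratio; higher means stronger binding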
The target of one assay is T1, P4.
T1 chain: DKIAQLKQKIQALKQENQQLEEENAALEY
Conditions: mean of both orientations.

The target of a further assay is T2, P4S.
T2 chain: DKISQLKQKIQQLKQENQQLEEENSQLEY
The following applies: mean of both orientations.

A further assay has as its target T3, 4H3056-AA.
T3 chain: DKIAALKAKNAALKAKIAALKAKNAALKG

A further assay addresses T4, 4H3133-AA.
T4 chain: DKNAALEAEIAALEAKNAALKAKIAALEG
The following applies: mean of both orientations.

A further assay concerns the target T5, 4H3162-AA.
T5 chain: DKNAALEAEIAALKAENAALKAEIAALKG
Conditions: mean of both orientations.

The target of another assay is T6, 4H32-AA.
T6 chain: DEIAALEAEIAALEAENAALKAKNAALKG
The following applies: mean of both orientations.

The target of another assay is T7, 4H3378-AA.
T7 chain: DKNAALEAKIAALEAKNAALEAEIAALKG
The following applies: mean of both orientations.

A further assay deals with T8, 4H340-AA.
T8 chain: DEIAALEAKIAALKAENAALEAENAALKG
Conditions: mean of both orientations.

The next assay concerns the target T9, 4H3413-AA.
T9 chain: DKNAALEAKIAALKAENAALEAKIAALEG
Conditions: mean of both orientations.

The target of another assay is T10, 4H3588-AA.
T10 chain: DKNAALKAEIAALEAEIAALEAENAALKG
Conditions: mean of both orientations.

Another assay concerns the target T11, 4H3590-AA.
T11 chain: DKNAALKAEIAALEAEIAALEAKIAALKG

For a further assay, the target named is T12, 4H3606-AA.
T12 chain: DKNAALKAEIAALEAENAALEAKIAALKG
The following applies: mean of both orientations.

Another assay concerns the target T13, 4H3631-AA.
T13 chain: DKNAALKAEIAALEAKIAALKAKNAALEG
Conditions: mean of both orientations.

The target in another assay is T14, 4H3697-AA.
T14 chain: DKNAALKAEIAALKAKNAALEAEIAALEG
The following applies: mean of both orientations.

Another assay addresses T15, 4H3718-AA.
T15 chain: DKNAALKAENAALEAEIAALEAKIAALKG
Conditions: mean of both orientations.

The next assay has as its target T16, 4H384-AA.
T16 chain: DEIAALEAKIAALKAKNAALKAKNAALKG
The following applies: mean of both orientations.

A further assay addresses T17, 4H3865-AA.
T17 chain: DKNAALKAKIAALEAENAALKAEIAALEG
Conditions: mean of both orientations.

The target in the next assay is T18, 4H697-AA.
T18 chain: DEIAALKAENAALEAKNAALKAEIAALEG
The following applies: mean of both orientations.

A further assay deals with T19, 4H982-AA.
T19 chain: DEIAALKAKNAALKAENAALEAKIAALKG
Conditions: mean of both orientations.

In the next assay the target is T20, Core_ININ-es_EEEE.
T20 chain: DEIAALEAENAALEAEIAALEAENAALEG
The following applies: mean of both orientations.

A further assay has as its target T21, Core_IIII-es_KEKE.
T21 chain: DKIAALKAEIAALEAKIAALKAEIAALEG
The following applies: mean of both orientations.

On to DEIQQLEEEISQLEQKNSQLKEKNQQLKY [P3S], for which the interaction score with P4 came out at 0.472; with P4S, 0.00696.
In the case of DKIAALKAKNAALKAKIAALKAKNAALKG [4H3056-AA], the interaction score in the assay with 4H3056-AA was -1.79; with 4H3133-AA, -0.786; in the assay with 4H3162-AA it was -1.58; with 4H32-AA, -1.08; with 4H3378-AA, -1.09; in the assay with 4H340-AA it was -1.52. The interaction score with 4H3413-AA was -0.103; with 4H3588-AA it was -0.439; with 4H3590-AA, -0.167; with 4H3606-AA it was 0.58; in the assay with 4H3631-AA it was -1.74; in the assay with 4H3697-AA it was -0.53. Also, the interaction score with 4H3718-AA is -0.69; in the assay with 4H384-AA, -1.93; in the assay with 4H3865-AA it was 0.0241; with 4H697-AA it was -1.44; in the assay with 4H982-AA, -1.65; in the assay with Core_ININ-es_EEEE it was 1.52.
In turn, DEIAALEAKIAALKAEIAALEAKIAALKG [Core_IIII-es_EKEK] had an interaction score with Core_IIII-es_KEKE of 1.11.
